In patent US11078465B2, “Alcohol dehydrogenase mutant and application thereof in synthesis of diaryl chiral alcohols” (Jiangnan University, priority 2018, dated 2021):

Legend:
Type in all cases: biochemical
[1] = Stereoselectivity (ee) of CPMK reduction, chiral liquid chromatography
Procedure, shortened: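 Reaction mixture extracted with ethyl acetate, solvent evaporated, residue taken up in ethanol. Chiral LC and GC give conversion and ee, with ee computed from LC molar concentrations of (S)- and (R)-CPMA.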

[2] = Stereoselectivity on different substrates; details: for Stereoselectivity (ee): configuration in brackets
Description: (§1) In an embodiment of the present disclosure, a chromatographic analysis method is as follows: 100 μL of reactant liquid is taken, 500 μL of ethyl acetate is added, shaking is performed for 1-2 min, centrifugation is performed at 12,000 rpm for 2-5 min, supernatant liquid is taken into a centrifuge tube, after an organic phase naturally volatilizes completely, 500 μL of chromatographically pure ethanol is added, and chiral liquid chromatography and gas chromatography are performed to analyze the transformation rate and the ee value.
(§2) Method for determining optical purity ee:
(§3) As: molar concentration of (S)-CPMA obtained by liquid chromatography; and AR: molar concentration of (R)-CPMA obtained by liquid chromatography.
(§4) The reduction on prochiral carbonyl compounds by the alcohol dehydrogenase mutants obtained in Example 3 was studied. The pro-chiral carbonyl compounds include (4-chlorophenyl)-(pyridin-2-yl)-methanone (CPMK), phenyl-(pyridin-2-yl)-methanone, (4-chlorophenyl)-(phenyl)-methanone, (4-bromophenyl)(phenyl)methanone, (4-fluorophenyl)(phenyl)methanone, (4-methoxyphenyl)-(phenyl)-methanone, (4-nitrophenyl)(phenyl)methanone, 1-(pyridin-2-yl)ethanone, acetophenone, 4′-Chloroacetophenone, 4-chlorophenacyl chloride, ethyl 2-oxo-4-phenylbutanoate (OPBE), ethyl 4-chloro-3-oxobutanoate, and methyl 2-oxo-2-phenylacetate.
All the products above were recrystallized from ethyl acetate and gave more than 99.9% optical purity.

[3] = Asymmetric reduction in 20 mL biocatalytic system, conversion
Description: as §1
The pure (R)-CPMA were recrystallized from ethyl acetate at 4° C. and gave 99.9% optical purity. […] Besides, the conversion cannot reach 100% with 24 h in the asymmetric reduction of (4-bromophenyl)-(phenyl)-methanone and p-nitrobenzophenone due to the low enzyme activity.

[4] = Stereoselectivity on different substrates; details: configuration in brackets
Description: as §1, §2, §3, §4

[5] = Substrate specificity, specific activity
Description: Adopting a total reaction system of 200 μL, including: 1.0 mM NADPH, 1.0 mM substrate CPMK and sodium phosphate buffer (PBS, 100 mM, pH 7.0), fully and evenly mixing, maintaining at 30° C. for 2 min, adding an appropriate amount of enzyme solution, and detecting the change in light absorption at 340 nm.
The enzyme activity was calculated by the following formula: Enzyme activity (U)=EW×V×10^3/(6220×I);
in the formula, EW is the change in absorbance at 340 nm in 1 min; V is the volume of a reaction solution in mL; 6220 is the molar extinction coefficient of NADPH in L/mol·cm); and 1 is the optical path distance in cm. One activity unit (U) corresponds to the amount of enzyme required to catalyze the oxidation of 1 μmol NADPH per minute under the above conditions.
as §4

[6] = Kinetic analysis of alcohol dehydrogenase and mutants (NADPH oxidation, 340 nm, double reciprocal curve); details: substrate CPMK
Procedure, shortened: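 His-tagged recombinant KpADH (wild type or mutant) purified by nickel affinity, desalted into Tris-HCl pH 7.0. Activity measured at 30° C in 100 mM sodium phosphate pH 7.0 with 1.0 mM NADPH and 1.0 mM CPMK by 340 nm NADPH absorbance decrease; kinetic parameters from double reciprocal plots over varied substrate and coenzyme concentrations.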

B1: E214I/S237A: isoleucine for glutamate at position 214 and alanine for serine at position 237 of SEQ ID No. 2 (protein)
chain: MSVLISGASGYIAKHIVRVLLEQNYKVIGTVRSQDKADKLLKQYNNPNLSYEIVPEIANLDAFDDIFKKHGKEIKYVIHAASPVNFGAKDLEKDLVIPAINGTKNMFEAIKKYAPDTVERVVMTASYASIMTPHRQNDPTLTLDEETWNPVTEENAYENVFTAYCASKTFAEKEAWKFVKENSDAVKFKLTTIHPSFVFGPQNFDEDVTKKLNITCEIINGLLHAPFDTKVEKTHFAQFIDVRDVAKTHVLGFQKDELINQRLLLCNGAFSQQDIVNVFNEDFPELKGQFPPEDKDTDLNKGVTGCKIDNEKTKKLLAFEFTPFHKTIHDTVYQILHKEGRV
modifications: Protein translated from synthetic DNA
ee value, (R)-CPMA ([1]; R configuration product, listed as E2141/S237A): 98.3% | e.e. ([1]; product configuration in brackets): 98.3 (R) | ee ([2]; substrate 4-chloroacetophenone, (R)): 99.4% | Stereoselectivity (ee) ([2]; substrate [drawing 10], acetophenone): 9.69 (R) | Stereoselectivity (ee) ([2]; substrate [drawing 11], 4-chloroacetophenone): 99.4 (R) | Stereoselectivity (ee) ([2]; substrate [drawing 12], 4-chlorobenzoyl chloride): 76.4 (R) | Stereoselectivity (ee) ([2]; substrate [drawing 16], (4-bromophenyl)-(phenyl)-methanone): 93.4 (S) | Stereoselectivity (ee) ([2]; substrate [drawing 17], p-nitrobenzophenone): 86.5 (S) | Conversion rate ([3]; 4-chloroacetophenone 100 mM, 1 h): 59% | Conversion rate ([3]; 4-chloroacetophenone 100 mM, 2 h): 72% | Conversion rate ([3]; 4-chloroacetophenone 100 mM, 3 h): 89% | Conversion rate ([3]; 4-chloroacetophenone 100 mM, 4 h): 85% | Conversion rate ([3]; 4-chloroacetophenone 100 mM, 6 h): 97.6% | Conversion rate ([3]; 4-chloroacetophenone 100 mM, 8 h): 99.8% | Conversion rate ([3]; 4-chloroacetophenone 100 mM, 12 h): >99.9% | Conversion rate ([3]; 4-chloroacetophenone 100 mM, 24 h): >99.9% | Conversion rate ([3]; 4-chloroacetophenone 200 mM, 1 h): 40% | Conversion rate ([3]; 4-chloroacetophenone 200 mM, 2 h): 52.4% | Conversion rate ([3]; 4-chloroacetophenone 200 mM, 3 h): 69.5% | Conversion rate ([3]; 4-chloroacetophenone 200 mM, 4 h): 76.9% | Conversion rate ([3]; 4-chloroacetophenone 200 mM, 6 h): 88.6% | Conversion rate ([3]; 4-chloroacetophenone 200 mM, 8 h): 95.6% | Conversion rate ([3]; 4-chloroacetophenone 200 mM, 12 h): 99.2% | Conversion rate ([3]; 4-chloroacetophenone 200 mM, 24 h): 99.7% | Conversion rate ([3]; 4-chloroacetophenone 500 mM, 1 h): 28.5% | Conversion rate ([3]; 4-chloroacetophenone 500 mM, 2 h): 38.9% | Conversion rate ([3]; 4-chloroacetophenone 500 mM, 3 h): 50.0% | Conversion rate ([3]; 4-chloroacetophenone 500 mM, 4 h): 64.2% | Conversion rate ([3]; 4-chloroacetophenone 500 mM, 6 h): 80.9% | Conversion rate ([3]; 4-chloroacetophenone 500 mM, 8 h): 90.2% | Conversion rate ([3]; 4-chloroacetophenone 500 mM, 12 h): 94.9% | Conversion rate ([3]; 4-chloroacetophenone 500 mM, 24 h): 99.2% | Stereoselectivity (ee) ([4]; substrate [drawing 13]): 36.8 (R) | Stereoselectivity (ee) ([4]; substrate [drawing 14], likely CPMK (values partly match Table 4)): 98.4 (R) | Stereoselectivity (ee) ([4]; substrate [drawing 15]): 52.6 (S) | Stereoselectivity (ee) ([4]; substrate [drawing 18]): 81.8 (S) | specific activity ([5]; substrate [drawing 1]): 0.09 U/mg | specific activity ([5]; substrate [drawing 2]): 0.08 U/mg | specific activity ([5]; substrate [drawing 3]): 1.42 U/mg | specific activity ([5]; substrate [drawing 4]): 2.94 U/mg | specific activity ([5]; substrate [drawing 5]): 12.38 U/mg | specific activity ([5]; substrate [drawing 6], 4-chlorophenacyl chloride): 30.09 U/mg | specific activity ([5]; substrate [drawing 7]): 21.73 U/mg | specific activity ([5]; substrate [drawing 8]): 30.28 U/mg | specific activity ([5]; substrate [drawing 9], ethyl 4-chloro-3-oxobutanoate): 5.58 U/mg | Kcat [6]: 12.06 ± 0.52 s⁻¹ | Km [6]: 470 ± 50 µM | Vmax [6]: 18.09 ± 0.78 µM/min/mg
